Results published in PMC12392964.

Target: FvMYB1-GST (woodland strawberry (Fragaria vesca))
Experiment: pull-down; FvSTOP1-His and FvbHLH33-His incubated together with FvMYB1-GST; detection with anti-His, bands quantified with ImageJ against the incubation alone

Row | Substance | binding strength with FvbHLH33-His present, against incubation alone (ImageJ) [times] | binding strength with FvSTOP1-His present, against incubation alone (ImageJ) [times]
1 | FvSTOP1-His (natural protein) | 0.31 | –
2 | FvbHLH33-His (natural protein) | – | 0.54
